Topoisomerase I assay on pDrive/RPS5: linking number change (ΔLk) with TAFs and TBP mixed in equimolar amounts before the plasmid (TAF complex alone +1.91) data for 1 substance are collected here from article PMC6650902.

The target of this assay is TAF complex (TFIIDΔTBP) (S. cerevisiae) (UniProt P46677).

In turn, “TATA-box binding protein (TBP), recombinant (from UniProt P13393 1-240) (natural protein)” came in with a topoisomerase I assay on pDrive/RPS5: linking number change (ΔLk) with TAFs and TBP mixed in equimolar amounts before the plasmid (TAF complex alone +1.91) of 0.48.
